*1 amine or outer side, *2 acyl side, *3 side chain or, on linkers, in order; H or OH if unused. Where no end group is shown, it is not given here. Side-chain parts run from the residue outwards. [ ]: non-standard residue; d: D form. The star is where a group is joined. Decanoyl(10-(4-HOOC-PhO)) = O=C(O)c1ccc(OCCCCCCCCCC(=O)*)cc1; αMePhe(2-F) = C[C@](N)(Cc1ccccc1F)C(=O)O; γGlu = O=C(O)[C@H](CCC(=O)[*:2])N[*:1]; αMeY = C[C@](N)(Cc1ccc(O)cc1)C(=O)O; αMeL = CC(C)C[C@](C)(N)C(=O)O; Nle = CCCC[C@H](N)C(=O)O; Orn = NCCC[C@H](N)C(=O)O; AEEA = NCCOCCOCC(=O)O; Aib = CC(C)(N)C(=O)O
Experiments:
Assay in all cases: cell-based or functional assay
[1] = target: T1, human glucose-dependent insulinotropic polypeptide (GIP) receptor (human) (UniProt P48546)
T1 sequence (looked up): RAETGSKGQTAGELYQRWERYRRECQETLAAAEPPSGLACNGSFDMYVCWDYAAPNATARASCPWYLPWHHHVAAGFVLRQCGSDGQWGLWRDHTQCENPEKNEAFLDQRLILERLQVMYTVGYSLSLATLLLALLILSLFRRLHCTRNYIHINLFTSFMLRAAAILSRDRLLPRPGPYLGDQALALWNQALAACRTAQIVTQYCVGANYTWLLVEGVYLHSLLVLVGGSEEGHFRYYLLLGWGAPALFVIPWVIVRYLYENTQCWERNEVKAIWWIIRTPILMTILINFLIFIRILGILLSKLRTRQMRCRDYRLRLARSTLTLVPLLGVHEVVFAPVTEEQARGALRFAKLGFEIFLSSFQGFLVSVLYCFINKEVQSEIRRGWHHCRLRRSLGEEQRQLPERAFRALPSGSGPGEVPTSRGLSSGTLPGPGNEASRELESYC

[2] = target: human glucagon receptor (human) (UniProt P47871)
[3] = target: human glucagon-like peptide-1 (GLP-1) receptor (human) (UniProt P43220)
[4] = target: human GLP-1 receptor (human, UniProt P43220 24-463)
[5] = target: T2, human GIP receptor (human, UniProt P48546 22-466)
T2 sequence (looked up): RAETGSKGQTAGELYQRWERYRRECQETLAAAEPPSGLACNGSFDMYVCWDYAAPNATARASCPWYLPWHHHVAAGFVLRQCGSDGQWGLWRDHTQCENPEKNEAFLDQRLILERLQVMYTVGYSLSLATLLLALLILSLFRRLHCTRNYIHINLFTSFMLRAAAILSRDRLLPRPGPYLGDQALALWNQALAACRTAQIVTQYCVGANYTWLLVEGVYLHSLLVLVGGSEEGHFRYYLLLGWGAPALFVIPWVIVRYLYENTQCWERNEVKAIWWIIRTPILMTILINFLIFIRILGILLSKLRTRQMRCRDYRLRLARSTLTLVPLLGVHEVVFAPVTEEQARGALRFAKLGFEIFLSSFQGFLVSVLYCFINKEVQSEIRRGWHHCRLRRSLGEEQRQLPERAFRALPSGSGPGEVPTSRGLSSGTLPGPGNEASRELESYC

[6] = target: human glucagon receptor (human, UniProt P47871 26-477)
[7] = target: T3, human GIP receptor (human, UniProt P48546 22-466); remark: listed apart in the source
T3 sequence (looked up): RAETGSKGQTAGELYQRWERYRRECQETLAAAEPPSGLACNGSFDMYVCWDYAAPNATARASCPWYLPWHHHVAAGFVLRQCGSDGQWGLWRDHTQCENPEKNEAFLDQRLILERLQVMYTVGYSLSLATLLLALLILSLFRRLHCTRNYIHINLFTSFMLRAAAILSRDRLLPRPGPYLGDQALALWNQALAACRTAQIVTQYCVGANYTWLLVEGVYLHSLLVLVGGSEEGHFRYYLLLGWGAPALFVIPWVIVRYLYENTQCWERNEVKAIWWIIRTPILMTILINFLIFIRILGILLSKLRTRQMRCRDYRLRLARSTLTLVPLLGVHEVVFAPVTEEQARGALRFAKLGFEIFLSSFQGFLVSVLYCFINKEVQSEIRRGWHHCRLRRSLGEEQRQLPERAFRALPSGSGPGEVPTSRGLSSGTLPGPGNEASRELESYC

[8] = target: human GLP-1 receptor (human, UniProt P43220 24-463); remark: listed apart in the source
[9] = target: human glucagon receptor (human, UniProt P47871 26-477); remark: listed apart in the source

B1: Example 236 (peptide)
peptide: YXEGTXTSDYXIXLDXKAQXKFIXXLIEGGPSSGAPPPS
modifications: Y-Aib-EGT-αMeF(2F)-TSDY-Aib-I-αMeL-LD-Orn-K((2-[2-(2-Amino-ethoxy)-ethoxy]-acetyl)2-(γ-Glu)-(10-(4-carboxyphenoxy)decanoyl))AQ-Aib-K((2-[2-(2-Amino-ethoxy)-ethoxy]-acetyl)2-(γ-Glu)-(10-(4-carboxyphenoxy)decanoyl))FI-(D-Glu)-αMeY-LIEGGPSSGAPPPS-NH2
cAMP EC50 [1]: 0.0154 nM | cAMP Emax [1]: 104% | cAMP EC50 [2]: > 9950 nM | cAMP EC50 [3]: 0.336 nM | cAMP Emax [3]: 96.5% | cAMP EC50 (1.0% HSA) [4]: 32.6 nM | cAMP Emax (1.0% HSA) [4]: 125% | cAMP EC50 (1.0% HSA) [5]: 0.641 nM | cAMP Emax (1.0% HSA) [5]: 80.5% | cAMP EC50 (1.0% HSA) [6]: > 9950 nM

B2: Example 247 (peptide)
peptide: YXEGTXTSDXXIXLDXIAQXKFIXXLIKGGPSSGAPPPS
modifications: Y-Aib-EGT-αMeF(2F)-TSD-4Pal-Aib-I-αMeL-LD-Orn-IAQ-Aib-K((2-[2-(2-Amino-ethoxy)-ethoxy]-acetyl)2-(γ-Glu)-(10-(4-carboxyphenoxy)decanoyl))FI-(D-Glu)-αMeY-LIK((2-[2-(2-Amino-ethoxy)-ethoxy]-acetyl)2-(γ-Glu)-(10-(4-carboxyphenoxy)decanoyl))GGPSSGAPPPS-NH2
cAMP EC50 [1]: 0.022 nM | cAMP Emax [1]: 103% | cAMP EC50 [2]: > 9950 nM | cAMP EC50 [3]: 1 nM | cAMP Emax [3]: 108% | cAMP EC50 (1.0% HSA) [4]: 77.7 nM | cAMP Emax (1.0% HSA) [4]: 109% | cAMP EC50 (1.0% HSA) [5]: 4.24 nM | cAMP Emax (1.0% HSA) [5]: 90.2% | cAMP EC50 (1.0% HSA) [6]: > 9950 nM

B3: Example 237 (peptide)
peptide: YXEGTXTSDYXIXLDXKAQXEFIXXLIKGGPSSGAPPPS
modifications: Y-Aib-EGT-αMeF(2F)-TSDY-Aib-I-αMeL-LD-Orn-K((2-[2-(2-Amino-ethoxy)-ethoxy]-acetyl)2-(γ-Glu)-(10-(4-carboxyphenoxy)decanoyl))AQ-Aib-EFI-(D-Glu)-αMeY-LIK((2-[2-(2-Amino-ethoxy)-ethoxy]-acetyl)2-(γ-Glu)-(10-(4-carboxyphenoxy)decanoyl))GGPSSGAPPPS-NH2
cAMP EC50 [1]: 0.0186 nM | cAMP Emax [1]: 102% | cAMP EC50 [2]: > 9950 nM | cAMP EC50 [3]: 0.633 nM | cAMP Emax [3]: 102% | cAMP EC50 (1.0% HSA) [4]: 38.1 nM | cAMP EC50 (1.0% HSA) [5]: 0.889 nM | cAMP Emax (1.0% HSA) [5]: 93.1% | cAMP EC50 (1.0% HSA) [6]: > 9950 nM

B4: Example 310 (peptide)
peptide: YXEGTXTSDXSIXLDXIAQXEFIKXLIKGGPSSGAPPPS
modifications: Aib2, αMeF(2F)6, hTyr10, αMeL13, Orn16, Aib20, αMeY25; K24 and K28: AEEA2-(γ-Glu)-(10-(4-carboxyphenoxy)decanoyl); C-terminal NH2
cAMP EC50 [7]: 0.025 nM | cAMP EC50 [8]: 0.347 nM | cAMP EC50 [9]: > 9950 nM

B5: Example 320 (peptide)
peptide: YXEGTXTSDXSIXLDXKAQXKFIXXLIEGGPSSGAPPPS
modifications: Aib2, αMeF(2F)6, hTyr10, αMeL13, Orn16, Aib20, D-Glu24, αMeY25; K17 and K21: AEEA2-(γ-Glu)-(10-(4-carboxyphenoxy)decanoyl); C-terminal NH2
cAMP EC50 [7]: 0.0144 nM | cAMP EC50 [8]: 0.246 nM | cAMP EC50 [9]: > 9950 nM

B6: Example 321 (peptide)
peptide: YXEGTXTSDXSIXLDXKAQXKFIXXLIEGGPSSGAPPPS
modifications: Aib2, αMeF(2F)6, Nle10, αMeL13, Orn16, Aib20, D-Glu24, αMeY25; K17 and K21: AEEA2-(γ-Glu)-(10-(4-carboxyphenoxy)decanoyl); C-terminal NH2
cAMP EC50 [7]: 0.0107 nM | cAMP EC50 [8]: 0.295 nM | cAMP EC50 [9]: > 9950 nM

B7: Example 243 (peptide)
peptide: YXEGTXTSDXXIXLDXKAQXKFIXXLIEGGPSSGAPPPS
modifications: Y-Aib-EGT-αMeF(2F)-TSD-4Pal-Aib-I-αMeL-LD-Orn-K((2-[2-(2-Amino-ethoxy)-ethoxy]-acetyl)2-(γ-Glu)-(10-(4-carboxyphenoxy)decanoyl))AQ-Aib-K((2-[2-(2-Amino-ethoxy)-ethoxy]-acetyl)2-(γ-Glu)-(10-(4-carboxyphenoxy)decanoyl))FI-(D-Glu)-αMeY-LIEGGPSSGAPPPS-NH2
cAMP EC50 [1]: 0.0154 nM | cAMP Emax [1]: 101% | cAMP EC50 [2]: > 9950 nM | cAMP EC50 [3]: 0.86 nM | cAMP Emax [3]: 93.2% | cAMP EC50 (1.0% HSA) [4]: 34.7 nM | cAMP Emax (1.0% HSA) [4]: 114% | cAMP EC50 (1.0% HSA) [5]: 0.728 nM | cAMP EC50 (1.0% HSA) [6]: > 9950 nM

B8: Example 240 (peptide)
peptide: YXEGTXTSDYXIXLDXIAQXKFIXXLIKGGPSSGAPPPS
modifications: Y-Aib-EGT-αMeF(2F)-TSDY-Aib-I-αMeL-LD-Orn-IAQ-Aib-K((2-[2-(2-Amino-ethoxy)-ethoxy]-acetyl)2-(γ-Glu)-(10-(4-carboxyphenoxy)decanoyl))FI-(D-Glu)-αMeY-LIK((2-[2-(2-Amino-ethoxy)-ethoxy]-acetyl)2-(γ-Glu)-(10-(4-carboxyphenoxy)decanoyl))GGPSSGAPPPS-NH2
cAMP EC50 [1]: 0.0237 nM | cAMP Emax [1]: 99.1% | cAMP EC50 [2]: > 9950 nM | cAMP EC50 [3]: 0.508 nM | cAMP Emax [3]: 98.5% | cAMP EC50 (1.0% HSA) [4]: 150 nM | cAMP Emax (1.0% HSA) [4]: 107% | cAMP EC50 (1.0% HSA) [5]: 11.7 nM | cAMP Emax (1.0% HSA) [5]: 87.2% | cAMP EC50 (1.0% HSA) [6]: > 9950 nM

B9: Example 323 (peptide)
peptide: YXEGTXTSDXSIXLDXKAQXKFIXXLIEGGPSSGAPPPS
modifications: Aib2, αMeF(2F)6, hTyr10, αMeL13, Orn16, Aib20, D-Glu24, αMeY25; K17 and K21: AEEA2-(γ-Glu)-CO-(CH2)10-CH3; C-terminal NH2
cAMP EC50 [7]: 0.00793 nM | cAMP EC50 [8]: 0.203 nM | cAMP EC50 [9]: > 9950 nM

Y[Aib]EGT[αMePhe(2-F)]TSD[Nle]SI[αMeL]LD[Orn]IAQ[Aib]EFIK([AEEA-AEEA-γGlu-Decanoyl(10-(4-HOOC-PhO))])[αMeY]LIK([AEEA-AEEA-γGlu-Decanoyl(10-(4-HOOC-PhO))])GGPSSGAPPPS-NH2 [Example 314]
cAMP EC50 [7]: 0.0216 nM | cAMP EC50 [8]: 0.673 nM | cAMP EC50 [9]: > 9950 nM
